Test results published in the Immune Epitope Database (IEDB).

The sequences below were run against HLA-A*02:01 (assay: IEDB peptide-MHC binding, purified MHC/competitive/radioactivity; ≥ and ≤ were set here for values at or beyond the usual limits of such assays). Settings: source organism: Hepacivirus hominis.

Sequence	IC50 [nM]
LLALLSCISV	2.4
LLAPITAYA	2.9
LLIAITAFT	174
LLMCAVHPEL	54
LLSCISVPV	2.5
MILMTHFFSI	268
MLLAYLVRI	3.3
MLVCGDDLVV	97
MMMNWSPTTA	34
MVLMTHFFSV	146

Same assay, conditions: source organism: Influenza A virus

Sequence	IC50 [nM]
LVASSGTLEFI	3730
MQALQLLLEV	67
MQIAILVTTV	79
MQIRGFVYFV	15

Same assay, conditions: source organism: Mammarenavirus brazilense

Sequence	IC50 [nM]
LLPDALLFTL	77

Same assay, conditions: source organism: Mammarenavirus choriomeningitidis

Sequence	IC50 [nM]
LMDCIIFES	99

Same assay, conditions: source organism: Mammarenavirus lassaense

Sequence	IC50 [nM]
LNCLSLLLSV	191

Same assay, conditions: source organism: Mammarenavirus whitewaterense

Sequence	IC50 [nM]
LNASYITPYV	87

Same assay, conditions: source organism: SARS-CoV1

Sequence	IC50 [nM]
LLALQQLEV	1
LLFLVLIML	294
LLFNKVTLA	5
LLFQLCTFT	833
LLLEWLAEV	0.22
LLLWISVKV	13
LLSAGIFGA	8.1
LMANLAPHLL	30
LMGHFSWWTA	18
LMSFTILCL	0.14
LMSFTILCLV	8.4
LVFLWLLWPV	4.9
LVIGFLFLA	1.4
LVIGVAFLAV	342
MLFTKFFYL	0.17
MLLTFLTSL	1.6
MLLTFLTSLL	11
MLSVVGFLV	7.7
MLWCKDGHV	30
MQVFFGYFA	10
MVMCGGSLYV	14

Same assay, conditions: source organism: Vaccinia virus WR

Sequence	IC50 [nM]
LLPLTSLVIT	1170
LLTDTIESA	25
LLWFLTGTFV	0.32
LMDSIFVSTM	259
LMIFISSFL	0.32
LMIGNYFSGV	0.27
LMTLDDLAI	74
LTNAISSRV	916
LTTVFIKYV	1060
LVKDESIQL	3150
LVMDKNHAI	327
LVSDCASTI	2740
MAAAKTPVI	1370
MAFDISVNA	149
MAGVEVRYI	2310
MICCDSRIVV	25
MIHKTYIDV	1920
MIIGEPIIVA	44
MIYDLNAVTT	278
MLLNVQTLI	2.9
MLNRVQILM	28
MLPESDLDKV	11
MLTNAISSRV	208
MMNERDVSV	1.1
MMNITRLEVI	144
MMVILPDKI	161
MQKFTILEYL	3730
MVDVSMMSM	200
MVTDKTAYI	227
NASKFVYVSV	1010

These sequences were tested against HLA-A*02:02 in the same assay as above. Settings: source organism: Hepacivirus hominis.

Sequence	IC50 [nM]
LLALLSCISV	0.77
LLAPITAYA	0.27
LLIAITAFT	37
LLMCAVHPEL	25
LLSCISVPV	1.4
MILMTHFFSI	420
MLLAYLVRI	6.6
MLVCGDDLVV	45
MMMNWSPTTA	14
MVLMTHFFSV	808

Same assay, conditions: source organism: Influenza A virus

Sequence	IC50 [nM]
LVASSGTLEFI	153
MQALQLLLEV	147
MQIAILVTTV	40
MQIRGFVYFV	19

Same assay, conditions: source organism: Mammarenavirus brazilense

Sequence	IC50 [nM]
LLPDALLFTL	4.7

Same assay, conditions: source organism: Mammarenavirus choriomeningitidis

Sequence	IC50 [nM]
LMDCIIFES	30

Same assay, conditions: source organism: Mammarenavirus lassaense

Sequence	IC50 [nM]
LNCLSLLLSV	124

Same assay, conditions: source organism: Mammarenavirus whitewaterense

Sequence	IC50 [nM]
LNASYITPYV	33

Same assay, conditions: source organism: SARS-CoV1

Sequence	IC50 [nM]
LLALQQLEV	0.14
LLFLVLIML	154
LLFNKVTLA	0.95
LLFQLCTFT	22
LLLEWLAEV	0.11
LLLWISVKV	94
LLSAGIFGA	12
LMANLAPHLL	0.23
LMGHFSWWTA	19
LMSFTILCL	0.27
LMSFTILCLV	0.34
LVFLWLLWPV	0.93
LVIGFLFLA	7.4
LVIGVAFLAV	2710
MLFTKFFYL	0.085
MLLTFLTSL	6.2
MLLTFLTSLL	0.73
MLSVVGFLV	1
MLWCKDGHV	10
MQVFFGYFA	10
MVMCGGSLYV	15

Same assay, conditions: source organism: Vaccinia virus WR

Sequence	IC50 [nM]
LLPLTSLVIT	999
LLTDTIESA	17
LLWFLTGTFV	2.4
LMDSIFVSTM	3.7
LMIFISSFL	0.65
LMIGNYFSGV	0.13
LMTLDDLAI	52
LTNAISSRV	146
LTTVFIKYV	3640
LVKDESIQL	122
LVMDKNHAI	19
LVSDCASTI	49
MAAAKTPVI	259
MAFDISVNA	191
MAGVEVRYI	293
MICCDSRIVV	665
MIHKTYIDV	1400
MIIGEPIIVA	42
MIYDLNAVTT	897
MLLNVQTLI	0.17
MLNRVQILM	4.8
MLPESDLDKV	3.2
MLTNAISSRV	53
MMNERDVSV	0.44
MMNITRLEVI	85
MMVILPDKI	69
MQKFTILEYL	164
MVDVSMMSM	559
MVTDKTAYI	17
NASKFVYVSV	4550

The sequences below were run against HLA-A*02:03 in the same assay as above. Settings: source organism: Hepacivirus hominis.

Sequence	IC50 [nM]
LLALLSCISV	1.3
LLAPITAYA	0.61
LLIAITAFT	12
LLMCAVHPEL	177
LLSCISVPV	4.7
MILMTHFFSI	1120
MLLAYLVRI	12
MLVCGDDLVV	102
MMMNWSPTTA	6.1
MVLMTHFFSV	174

Same assay, conditions: source organism: Influenza A virus

Sequence	IC50 [nM]
LVASSGTLEFI	697
MQALQLLLEV	13
MQIAILVTTV	6
MQIRGFVYFV	3.6

Same assay, conditions: source organism: Mammarenavirus brazilense

Sequence	IC50 [nM]
LLPDALLFTL	733

Same assay, conditions: source organism: Mammarenavirus choriomeningitidis

Sequence	IC50 [nM]
LMDCIIFES	825

Same assay, conditions: source organism: Mammarenavirus lassaense

Sequence	IC50 [nM]
LNCLSLLLSV	230

Same assay, conditions: source organism: Mammarenavirus whitewaterense

Sequence	IC50 [nM]
LNASYITPYV	1070

Same assay, conditions: source organism: SARS-CoV1

Sequence	IC50 [nM]
LLALQQLEV	0.29
LLFLVLIML	1370
LLFNKVTLA	1.1
LLFQLCTFT	3.8
LLLEWLAEV	0.63
LLLWISVKV	198
LLSAGIFGA	15
LMANLAPHLL	1.5
LMGHFSWWTA	135
LMSFTILCL	16
LMSFTILCLV	91
LVFLWLLWPV	1.9
LVIGFLFLA	20
LVIGVAFLAV	22
MLFTKFFYL	17
MLLTFLTSL	4.8
MLLTFLTSLL	7.3
MLSVVGFLV	3.5
MLWCKDGHV	11
MQVFFGYFA	193
MVMCGGSLYV	10

Same assay, conditions: source organism: Vaccinia virus WR

Sequence	IC50 [nM]
LLPLTSLVIT	1320
LLTDTIESA	11
LLWFLTGTFV	9.2
LMDSIFVSTM	8.1
LMIFISSFL	0.13
LMIGNYFSGV	0.093
LMTLDDLAI	76
LTNAISSRV	19
LTTVFIKYV	676
LVKDESIQL	649
LVMDKNHAI	770
LVSDCASTI	17
MAAAKTPVI	209
MAFDISVNA	15
MAGVEVRYI	201
MICCDSRIVV	392
MIHKTYIDV	15
MIIGEPIIVA	111
MIYDLNAVTT	477
MLLNVQTLI	0.25
MLNRVQILM	27
MLPESDLDKV	1770
MLTNAISSRV	0.11
MMNERDVSV	0.27
MMNITRLEVI	26
MMVILPDKI	16
MQKFTILEYL	279
MVDVSMMSM	1160
MVTDKTAYI	2
NASKFVYVSV	8.6

These sequences were tested against HLA-A*02:06 in the same assay as above. Settings: source organism: Hepacivirus hominis.

Sequence	IC50 [nM]
LLALLSCISV	16
LLAPITAYA	5.3
LLIAITAFT	461
LLMCAVHPEL	442
LLSCISVPV	17
MILMTHFFSI	307
MLLAYLVRI	5
MLVCGDDLVV	157
MMMNWSPTTA	849
MVLMTHFFSV	15

Same assay, conditions: source organism: Influenza A virus

Sequence	IC50 [nM]
LVASSGTLEFI	305
MQALQLLLEV	48
MQIAILVTTV	61
MQIRGFVYFV	10

Same assay, conditions: source organism: Mammarenavirus brazilense

Sequence	IC50 [nM]
LLPDALLFTL	79

Same assay, conditions: source organism: Mammarenavirus choriomeningitidis

Sequence	IC50 [nM]
LMDCIIFES	300

Same assay, conditions: source organism: Mammarenavirus lassaense

Sequence	IC50 [nM]
LNCLSLLLSV	251

Same assay, conditions: source organism: Mammarenavirus whitewaterense

Sequence	IC50 [nM]
LNASYITPYV	38

Same assay, conditions: source organism: SARS-CoV1

Sequence	IC50 [nM]
LLALQQLEV	42
LLFLVLIML	573
LLFNKVTLA	9
LLFQLCTFT	11
LLLEWLAEV	0.11
LLLWISVKV	10
LLSAGIFGA	25
LMANLAPHLL	115
LMGHFSWWTA	97
LMSFTILCL	1.8
LMSFTILCLV	40
LVFLWLLWPV	0.56
LVIGFLFLA	0.095
LVIGVAFLAV	2.6
MLFTKFFYL	1.4
MLLTFLTSL	3.6
MLLTFLTSLL	25
MLSVVGFLV	116
MLWCKDGHV	362
MQVFFGYFA	1
MVMCGGSLYV	13

Same assay, conditions: source organism: Vaccinia virus WR

Sequence	IC50 [nM]
LLPLTSLVIT	1610
LLTDTIESA	5.9
LLWFLTGTFV	18
LMDSIFVSTM	610
LMIFISSFL	18
LMIGNYFSGV	0.13
LMTLDDLAI	288
LTNAISSRV	145
LTTVFIKYV	130
LVKDESIQL	1400
LVMDKNHAI	103
LVSDCASTI	61
MAAAKTPVI	672
MAFDISVNA	13
MAGVEVRYI	2050
MICCDSRIVV	52
MIHKTYIDV	126
MIIGEPIIVA	124
MIYDLNAVTT	429
MLLNVQTLI	0.22
MLNRVQILM	2560
MLPESDLDKV	4.4
MLTNAISSRV	224
MMNERDVSV	64
MMNITRLEVI	134
MMVILPDKI	909
MQKFTILEYL	909
MVDVSMMSM	101
MVTDKTAYI	25
NASKFVYVSV	823

These sequences were tested against HLA-A*68:02 in the same assay as above. Settings: source organism: Hepacivirus hominis.

Sequence	IC50 [nM]
LLALLSCISV	2450
LLAPITAYA	1.5
LLIAITAFT	1050
LLMCAVHPEL	1350
LLSCISVPV	15
MILMTHFFSI	883
MLLAYLVRI	1830
MLVCGDDLVV	3060
MMMNWSPTTA	1140
MVLMTHFFSV	13

Same assay, conditions: source organism: Influenza A virus

Sequence	IC50 [nM]
LVASSGTLEFI	199
MQALQLLLEV	615
MQIAILVTTV	129
MQIRGFVYFV	25

Same assay, conditions: source organism: Mammarenavirus brazilense

Sequence	IC50 [nM]
LLPDALLFTL	232

Same assay, conditions: source organism: Mammarenavirus choriomeningitidis

Sequence	IC50 [nM]
LMDCIIFES	425

Same assay, conditions: source organism: Mammarenavirus lassaense

Sequence	IC50 [nM]
LNCLSLLLSV	4070

Same assay, conditions: source organism: Mammarenavirus whitewaterense

Sequence	IC50 [nM]
LNASYITPYV	13

Same assay, conditions: source organism: SARS-CoV1

Sequence	IC50 [nM]
LLALQQLEV	83
LLFLVLIML	1250
LLFNKVTLA	288
LLFQLCTFT	855
LLLEWLAEV	339
LLLWISVKV	2740
LLSAGIFGA	106
LMANLAPHLL	1170
LMGHFSWWTA	82
LMSFTILCL	709
LMSFTILCLV	40
LVFLWLLWPV	18
LVIGFLFLA	26
LVIGVAFLAV	62
MLFTKFFYL	0.056
MLLTFLTSL	923
MLLTFLTSLL	299
MLSVVGFLV	92
MLWCKDGHV	74
MQVFFGYFA	12
MVMCGGSLYV	6.7

Same assay, conditions: source organism: Vaccinia virus WR

Sequence	IC50 [nM]
LLPLTSLVIT	1490
LLTDTIESA	1240
LLWFLTGTFV	0.13
LMDSIFVSTM	680
LMIFISSFL	35
LMIGNYFSGV	160
LMTLDDLAI	4410
LTNAISSRV	16
LTTVFIKYV	330
LVKDESIQL	1470
LVMDKNHAI	10
LVSDCASTI	71
MAAAKTPVI	16
MAFDISVNA	1.8
MAGVEVRYI	583
MICCDSRIVV	27
MIHKTYIDV	269
MIIGEPIIVA	280
MIYDLNAVTT	114
MLLNVQTLI	216
MLNRVQILM	4200
MLPESDLDKV	196
MLTNAISSRV	101
MMNERDVSV	566
MMNITRLEVI	428
MMVILPDKI	1630
MQKFTILEYL	3730
MVDVSMMSM	519
MVTDKTAYI	3.2
NASKFVYVSV	101
